Measured values taken from article PMC11082193, “Enzymatic synthesis of mono- and trifluorinated alanine enantiomers expands the scope of fluorine biocatalysis” (Communications Chemistry, 2024).

Tests used:
O=C(O)C(=O)CF = experiment: purified protein; assay type: biochemical, Vibrio proteolyticus; details: reductive amination, 0.5 mM NADH, 200 mM NH4Cl, 50 mM sodium phosphate pH 8.0, 30 °C
CC(=O)C(=O)O = experiment: purified protein; assay type: biochemical, Vibrio proteolyticus; details: reductive amination, 0.5 mM NADH, 200 mM NH4Cl, 50 mM sodium phosphate pH 8.0, 30 °C
SlALR = target: T1, SlALR (Streptomyces lavendulae, UniProt Q65YW7); experiment: HPLC of released pyruvate; assay type: biochemical; details: beta-elimination of fluoride; 10 mM substrate, 0.02 or 0.1 μM enzyme, 50 μM pyridoxal 5'-phosphate, pH 8.0, 30 °C, 18 h
T1 construct: gene alr; expressed in E. coli BL21(DE3), Ni-NTA purified
T1 sequence (Q65YW7 2-378): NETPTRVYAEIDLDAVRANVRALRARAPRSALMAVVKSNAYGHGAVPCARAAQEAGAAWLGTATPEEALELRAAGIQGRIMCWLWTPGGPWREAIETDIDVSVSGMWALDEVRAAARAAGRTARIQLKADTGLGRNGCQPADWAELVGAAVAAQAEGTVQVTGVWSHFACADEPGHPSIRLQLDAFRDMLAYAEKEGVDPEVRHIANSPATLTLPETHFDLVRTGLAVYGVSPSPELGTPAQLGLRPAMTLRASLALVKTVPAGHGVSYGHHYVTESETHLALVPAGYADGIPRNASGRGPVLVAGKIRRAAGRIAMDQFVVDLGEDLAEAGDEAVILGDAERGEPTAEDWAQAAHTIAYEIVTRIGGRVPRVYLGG

NAD-PseFDH = target: T2, NAD-PseFDH (Pseudomonas sp. 101, UniProt P33160); experiment: FDH activity assay with formate; assay type: biochemical
T2 construct: N-terminal His6 tag followed by TEV site (His6 purified); source plasmid pZ-ASL; expressed in E. coli BL21(DE3)
T2 sequence (P33160 2-401): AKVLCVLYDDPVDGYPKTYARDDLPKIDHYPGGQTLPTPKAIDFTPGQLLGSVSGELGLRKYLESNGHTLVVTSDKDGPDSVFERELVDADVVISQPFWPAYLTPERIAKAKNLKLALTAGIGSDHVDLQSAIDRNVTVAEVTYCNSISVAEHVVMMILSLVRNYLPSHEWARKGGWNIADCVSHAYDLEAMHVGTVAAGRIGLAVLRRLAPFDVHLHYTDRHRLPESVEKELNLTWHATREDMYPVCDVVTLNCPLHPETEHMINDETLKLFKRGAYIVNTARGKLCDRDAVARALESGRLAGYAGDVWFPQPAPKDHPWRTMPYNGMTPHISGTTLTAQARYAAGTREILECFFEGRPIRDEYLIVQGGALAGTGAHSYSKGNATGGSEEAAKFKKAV

purified protein [1] = substrate: CC(=O)C(=O)O; experiment: purified protein; assay type: biochemical, Symbiobacterium thermophilum; details: reductive amination, 0.5 mM NADPH, 200 mM NH4Cl, 50 mM sodium phosphate pH 8.0, 30 °C
purified protein [2] = substrate: O=C(O)C(=O)CF; experiment: purified protein; assay type: biochemical, Symbiobacterium thermophilum; details: reductive amination, 0.5 mM NADPH, 200 mM NH4Cl, 50 mM sodium phosphate pH 8.0, 30 °C

Question: For VpALD (Vibrio proteolyticus), which Km (O=C(O)C(=O)CF) is on record?
Answer: 0.18 ± 0.02 mM

Question: And the Vmax (O=C(O)C(=O)CF)?
Answer: 11.9 µmol/min/mg

Question: What about the kcat (O=C(O)C(=O)CF) of the same molecule?
Answer: 8.3 ± 0.3 s⁻¹

Question: What about the kcat/Km (O=C(O)C(=O)CF) of the same molecule?
Answer: 46100 M⁻¹ s⁻¹

Question: What about the Km (CC(=O)C(=O)O) of the same molecule?
Answer: 0.29 ± 0.04 mM

Question: And the Vmax (CC(=O)C(=O)O)?
Answer: 247 µmol/min/mg

Question: And the kcat (CC(=O)C(=O)O)?
Answer: 173 ± 8 s⁻¹

Question: And the kcat/Km (CC(=O)C(=O)O)?
Answer: 597000 M⁻¹ s⁻¹

Question: With `N[C@@H](CF)C(=O)O` [(R)-FAla, (R)-3-fluoroalanine] as the molecule, how does the “HPLC of released pyruvate” value (SlALR) read?
Answer: (R)-FAla and (S)-FAla were transformed by ^SlALR into Pyr

Question: With `NC(=O)c1ccc[n+]([C@@H]2O[C@H](COP(=O)(O)OP(=O)(O)OC[C@H]3O[C@@H](n4cnc5c(N)ncnc54)[C@H](O)[C@@H]3O)[C@@H](O)[C@H]2O)c1` [NAD^+] as the molecule, how does the “FDH activity assay with formate” value (NAD-PseFDH; formate as co-substrate) read?
Answer: confirmed the high specificity for either cofactor of the purified NAD-^PseFDH and NADP-^PseFDH enzymes

Question: `O=CO` [formate] was tested. Which “FDH activity assay with formate” value (NAD-PseFDH; NAD+ as co-substrate) did it give?
Answer: the functionality of both ^PseFDH enzymes was verified on formate

Question: Which “HPLC of released pyruvate” value (SlALR) does the source give for `N[C@H](CF)C(=O)O` [(S)-FAla, (S)-3-fluoroalanine] here?
Answer: (R)-FAla and (S)-FAla were transformed by ^SlALR into Pyr

B1: StDAPDH (Symbiobacterium thermophilum IAM 14863) (protein)
chain: DKLRVAVVGYGNVGRYALEAVQAAPDMELVGVVRRKVLAATPPELTGVRVVTDISQLEGVQGALLCVPTRSVPEYAEAMLRRGIHTVDSYDIHGDLADLRRRLDPVAREHGAAAVISAGWDPGTDSIIRALLEFMAPKGITYTNFGPGMSMGHSVAVKAIPGVRDALSMTIPAGMGVHKRAVYVELEPGADFAEVERAIKTDPYFVRDETRVTQVESVSALMDVGHGVVMERKGVSGATHNQLFRFEMRINNPALTAQVMVAALRAAARQKPGCYTMIEIPVIDYLPGDREAWIRKLV
notes: expressed in E. coli BL21(DE3), Ni-NTA purified
Question: What does the source list for B1?
Answer: Km (purified protein [1]): 6.7 ± 0.3 mM; Vmax (purified protein [1]): 1.81 µmol/min/mg; kcat (purified protein [1]): 1.05 ± 0.01 s⁻¹; kcat/Km (purified protein [1]): 160 M⁻¹ s⁻¹; Km (purified protein [2]): 14.0 ± 0.6 mM; Vmax (purified protein [2]): 0.161 µmol/min/mg; kcat (purified protein [2]): 0.093 ± 0.001 s⁻¹; kcat/Km (purified protein [2]): 6.6 M⁻¹ s⁻¹
